Experimental data taken from the supplement of paper PMC5998384.

What was measured:
[1] = system: HeLa Kyoto; test: thermal stability score vs G1/S (z-score of summed log2 fold changes over temperatures); higher = more thermally stable than in G1/S
[2] = system: HeLa Kyoto; test: melting temperature (median over replicates), in situ; higher = more thermally stable
[3] = cell cycle stage: early G1 (4.5 h after nocodazole release)
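Throughout, for melting temperature (median over replicates), in situ: HeLa Kyoto cells synchronized by double thymidine or nocodazole block, proteins quantified by TMT10plex mass spectrometry, three independent biological replicates.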
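Throughout, for thermal stability score vs G1/S (z-score of summed log2 fold changes over temperatures): synchronized HeLa Kyoto cells, proteins quantified by TMT10plex mass spectrometry, three biological replicates, mitosis taken 0.5 h after nocodazole release, G1/S directly after double thymidine block.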

| Substance | thermal stability score [1, 3] | thermal stability score ([1]; cell cycle stage: mitosis) | melting temperature ([2]; cell cycle stage: G1/S) | melting temperature ([2]; cell cycle stage: mitosis) |
| --- | --- | --- | --- | --- |
| MAAPAGGGGSAVSVLAPNGRRHTVKVTPSTVLLQVLEDTCRRQDFNPCEYDLKFQRSVLDLSLQWRFANLPNNAKLEMVPASRSREGPENMVRIALQLDDGSRLQDSFCSGQTLWELLSHFPQIRECLQHPGGATPVCVYTRDEVTGEAALRGTTLQSLGLTGGSATIRFVMKCYDPVGKTPGSLGSSASAGQAAASAPLPLESGELSRGDLSRPEDADTSGPCCEHTQEKQSTRAPAAAPFVPFSGGGQRLGGPPGPTRPLTSSSAKLPKSLSSPGGPSKPKKSKSGQDPQQEQEQERERDPQQEQERERPVDREPVDREPVVCHPDLEERLQAWPAELPDEFFELTVDDVRRRLAQLKSERKRLEEAPLVTKAFREAQIKEKLERYPKVALRVLFPDRYVLQGFFRPSETVGDLRDFVRSHLGNPELSFYLFITPPKTVLDDHTQTLFQANLFPAALVHLGAEEPAGVYLEPGLLEHAISPSAADVLVARYMSRAAGSPSPLPAPDPAPKSEPAAEEGALVPPEPIPGTAQPVKRSLGKVPKWLKLPASKR [ASPSCR1] | -0.292 | -0.934 | 52.2 °C |  |
| MAAVVAKREGPPFISEAAVRGNAAVLDYCRTSVSALSGATAGILGLTGLYGFIFYLLASVLLSLLLILKAGRRWNKYFKSRRPLFTGGLIGGLFTYVLFWTFLYGMVHVY [EMC6] | 1.03 | -0.846 | 54.6 °C | 54.1 °C |
| MALRELKVCLLGDTGVGKSSIVWRFVEDSFDPNINPTIGASFMTKTVQYQNELHKFLIWDTAGQERFRALAPMYYRGSAAAIIVYDITKEETFSTLKNWVKELRQHGPPNIVVAIAGNKCDLIDVREVMERDAKDYADSIHAIFVETSAKNAININELFIEISRRIPSTDANLPSGGKGFKLRRQPSEPKRSCC [RAB22A] | 1.25 | 0.617 | 54.8 °C | 53.7 °C |
| MGNPENIEDAYVAVIRPKNTASLNSREYRAKSYEILLHEVPIEGQKKKRKKVLLETKLQGNSEITQGILDYVVETTKPISPANQGIRGKRVVLMKKFPLDGEKMGREASLFIVPSVVKDNTKYTYTPGCPIFYCLQDIMRVCSESSTHFATLTARMLIALDKWLDERHAQSHFIPALFRPSPLERIKTNVINPAYATESGQTENSLHMGYSALEIKSKMLALEKADTCIYNPLFGSDLQYTNRVDKVVINPYFGLGAPDYSKIQIPKQEKWQRSMSSVTEDKERQWVDDFPLHRSACEGDSELLSRLLSERFSVNQLDSDHWAPIHYACWYGKVEATRILLEKGKCNPNLLNGQLSSPLHFAAGGGHAEIVQILLNHPETDRHITDQQGRSPLNICEENKQNNWEEAAKLLKEAINKPYEKVRIYRMDGSYRSVELKHGNNTTVQQIMEGMRLSQETQQYFTIWICSENLSLQLKPYHKPLQHVRDWPEILAELTNLDPQRETPQLFLRRDVRLPLEVEKQIEDPLAILILFDEARYNLLKGFYTAPDAKLITLASLLLQIVYGNYESKKHKQGFLNEENLKSIVPVTKLKSKAPHWTNRILHEYKNLSTSEGVSKEMHHLQRMFLQNCWEIPTYGAAFFTGQIFTKASPSNHKVIPVYVGVNIKGLHLLNMETKALLISLKYGCFMWQLGDTDTCFQIHSMENKMSFIVHTKQAGLVVKLLMKLNGQLMPTERNS [KRIT1] | -0.252 | 0.0145 |  |  |
| MGQCGITSSKTVLVFLNLIFWGAAGILCYVGAYVFITYDDYDHFFEDVYTLIPAVVIIAVGALLFIIGLIGCCATIRESRCGLATFVIILLLVFVTEVVVVVLGYVYRAKVENEVDRSIQKVYKTYNGTNPDAASRAIDYVQRQLHCCGIHNYSDWENTDWFKETKNQSVPLSCCRETASNCNGSLAHPSDLYAEGCEALVVKKLQEIMMHVIWAALAFAAIQLLGMLCACIVLCRRSRDPAYELLITGGTYA [TSPAN3] | -0.556 | -0.785 |  |  |
| MKAIIHLTLLALLSVNTATNQGNSADAVTTTETATSGPTVAAADTTETNFPETASTTANTPSFPTATSPAPPIISTHSSSTIPTPAPPIISTHSSSTIPIPTAADSESTTNVNSLATSDIITASSPNDGLITMVPSETQSNNEMSPTTEDNQSSGPPTGTALLETSTLNSTGPSNPCQDDPCADNSLCVKLHNTSFCLCLEGYYYNSSTCKKGKVFPGKISVTVSETFDPEEKHSMAYQDLHSEITSLFKDVFGTSVYGQTVILTVSTSLSPRSEMRADDKFVNVTIVTILAETTSDNEKTVTEKINKAIRSSSSNFLNYDLTLRCDYYGCNQTADDCLNGLACDCKSDLQRPNPQSPFCVASSLKCPDACNAQHKQCLIKKSGGAPECACVPGYQEDANGNCQKCAFGYSGLDCKDKFQLILTIVGTIAGIVILSMIIALIVTARSNNKTKHIEEENLIDEDFQNLKLRSTGFTNLGAEGSVFPKVRITASRDSQMQNPYSRHSSMPRPDY [MUC13] | -3.46 | -1.12 |  |  |
| MKLPIFIADAFTARAFRGNPAAVCLLENELDEDMHQKIAREMNLSETAFIRKLHPTDNFAQSSCFGLRWFTPASEVPLCGHATLASAAVLFHKIKNMNSTLTFVTLSGELRARRAEDGIVLDLPLYPAHPQDFHEVEDLIKTAIGNTLVQDICYSPDTQKLLVRLSDVYNRSFLENLKVNTENLLQVENTGKVKGLILTLKGEPGGQTQAFDFYSRYFAPWVGVAEDPVTGSAHAVLSSYWSQHLGKKEMHAFQCSHRGGELGISLRPDGRVDIRGGAAVVLEGTLTA [PBLD] | -0.159 | 0.989 |  |  |
| MKLVFLVLLFLGALGLCLAGRRRSVQWCAVSQPEATKCFQWQRNMRKVRGPPVSCIKRDSPIQCIQAIAENRADAVTLDGGFIYEAGLAPYKLRPVAAEVYGTERQPRTHYYAVAVVKKGGSFQLNELQGLKSCHTGLRRTAGWNVPIGTLRPFLNWTGPPEPIEAAVARFFSASCVPGADKGQFPNLCRLCAGTGENKCAFSSQEPYFSYSGAFKCLRDGAGDVAFIRESTVFEDLSDEAERDEYELLCPDNTRKPVDKFKDCHLARVPSHAVVARSVNGKEDAIWNLLRQAQEKFGKDKSPKFQLFGSPSGQKDLLFKDSAIGFSRVPPRIDSGLYLGSGYFTAIQNLRKSEEEVAARRARVVWCAVGEQELRKCNQWSGLSEGSVTCSSASTTEDCIALVLKGEADAMSLDGGYVYTAGKCGLVPVLAENYKSQQSSDPDPNCVDRPVEGYLAVAVVRRSDTSLTWNSVKGKKSCHTAVDRTAGWNIPMGLLFNQTGSCKFDEYFSQSCAPGSDPRSNLCALCIGDEQGENKCVPNSNERYYGYTGAFRCLAENAGDVAFVKDVTVLQNTDGNNNEAWAKDLKLADFALLCLDGKRKPVTEARSCHLAMAPNHAVVSRMDKVERLKQVLLHQQAKFGRNGSDCPDKFCLFQSETKNLLFNDNTECLARLHGKTTYEKYLGPQYVAGITNLKKCSTSPLLEACEFLRK [LTF] | -3.21 | -1.19 |  |  |
| MNPGFDLSRRNPQEDFELIQRIGSGTYGDVYKARNVNTGELAAIKVIKLEPGEDFAVVQQEIIMMKDCKHPNIVAYFGSYLRRDKLWICMEFCGGGSLQDIYHVTGPLSELQIAYVSRETLQGLYYLHSKGKMHRDIKGANILLTDNGHVKLADFGVSAQITATIAKRKSFIGTPYWMAPEVAAVERKGGYNQLCDLWAVGITAIELAELQPPMFDLHPMRALFLMTKSNFQPPKLKDKMKWSNSFHHFVKMALTKNPKKRPTAEKLLQHPFVTQHLTRSLAIELLDKVNNPDHSTYHDFDDDDPEPLVAVPHRIHSTSRNVREEKTRSEITFGQVKFDPPLRKETEPHHELPDSDGFLDSSEEIYYTARSNLDLQLEYGQGHQGGYFLGANKSLLKSVEEELHQRGHVAHLEDDEGDDDESKHSTLKAKIPPPLPPKPKSIFIPQEMHSTEDENQGTIKRCPMSGSPAKPSQVPPRPPPPRLPPHKPVALGNGMSSFQLNGERDGSLCQQQNEHRGTNLSRKEKKDVPKPISNGLPPTPKVHMGACFSKVFNGCPLKIHCASSWINPDTRDQYLIFGAEEGIYTLNLNELHETSMEQLFPRRCTWLYVMNNCLLSISGKASQLYSHNLPGLFDYARQMQKLPVAIPAHKLPDRILPRKFSVSAKIPETKWCQKCCVVRNPYTGHKYLCGALQTSIVLLEWVEPMQKFMLIKHIDFPIPCPLRMFEMLVVPEQEYPLVCVGVSRGRDFNQVVRFETVNPNSTSSWFTESDTPQTNVTHVTQLERDTILVCLDCCIKIVNLQGRLKSSRKLSSELTFDFQIESIVCLQDSVLAFWKHGMQGRSFRSNEVTQEISDSTRIFRLLGSDRVVVLESRPTDNPTANSNLYILAGHENSY [MAP4K3] | 0.473 | 0.693 |  |  |
| MNRESFAAGERLVSPAYVRQGCEARRSHEHLIRLLLEKGKCPENGWDESTLELFLHELAIMDSNNFLGNCGVGEREGRVASALVARRHYRFIHGIGRSGDISAVQPKAAGSSLLNKITNSLVLDIIKLAGVHTVANCFVVPMATGMSLTLCFLTLRHKRPKAKYIIWPRIDQKSCFKSMITAGFEPVVIENVLEGDELRTDLKAVEAKVQELGPDCILCIHSTTSCFAPRVPDRLEELAVICANYDIPHIVNNAYGVQSSKCMHLIQQGARVGRIDAFVQSLDKNFMVPVGGAIIAGFNDSFIQEISKMYPGRASASPSLDVLITLLSLGSNGYKKLLKERKEMFSYLSNQIKKLSEAYNERLLHTPHNPISLAMTLKTLDEHRDKAVTQLGSMLFTRQVSGARVVPLGSMQTVSGYTFRGFMSHTNNYPCAYLNAASAIGMKMQDVDLFIKRLDRCLKAVRKERSKESDDNYDKTEDVDIEEMALKLDNVLLDTYQDASS [SEPSECS] | -1.52 | -1.62 |  |  |
| MNSMNPMKPALPPAPHGDGSFAYESVPWQQSATQPAGSLSVVTTVWGVGNATQSQVLGNPMGPAGSPSGSSMMPGVAGGSSALTSPQCLGQQAFAEGGANKGYVQQGVYSRGGYPGAPGFTTGYAGGPGGLGLPSHAARPSTDFTQAAAAAAVAAAAATATATATATVAALQEKQSQELSQYGAMGAGQSFNSQFLQHGGPRGPSVPAGMNPTGIGGVMGPSGLSPLAMNPTRAAGMTPLYAGQRLPQHGYPGPPQAQPLPRQGVKRTYSEVYPGQQYLQGGQYAPSTAQFAPSPGQPPAPSPSYPGHRLPLQQGMTQSLSVPGPTGLHYKPTEQFNGQGASFNGGSVSYSQPGLSGPTRSIPGYPSSPLPGNPTPPMTPSSSVPYMSPNQEVKSPFLPDLKPNLNSLHSSPSGSGPCDELRLTFPVRDGVVLEPFRLQHNLAVSNHVFQLRDSVYKTLIMRPDLELQFKCYHHEDRQMNTNWPASVQVSVNATPLTIERGDNKTSHKPLYLKHVCQPGRNTIQITVTACCCSHLFVLQLVHRPSVRSVLQGLLKKRLLPAEHCITKIKRNFSSGTIPGTPGPNGEDGVEQTAIKVSLKCPITFRRIQLPARGHDCRHIQCFDLESYLQLNCERGTWRCPVCNKTALLEGLEVDQYMLGILIYIQNSDYEEITIDPTCSWKPVPVKPDMHIKEEPDGPALKRCRTVSPAHVLMPSVMEMIAALGPGAAPFAPLQPPSVPAPSDYPGQGSSFLGPGTFPESFPPTTPSTPTLAEFTPGPPPISYQSDIPSSLLTSEKSTACLPSQMAPAGHLDPTHNPGTPGLHTSNLGAPPGPQLHHSNPPPASRQSLGQASLGPTGELAFSPATGVMGPPSMSGAGEAPEPALDLLPELTNPDELLSYLGPPDLPTNNNDDLLSLFENN [ZMIZ2] | 0.174 | 0.237 |  |  |
| MSVPGPYQAATGPSSAPSAPPSYEETVAVNSYYPTPPAPMPGPTTGLVTGPDGKGMNPPSYYTQPAPIPNNNPITVQTVYVQHPITFLDRPIQMCCPSCNKMIVSQLSYNAGALTWLSCGSLCLLGCIAGCCFIPFCVDALQDVDHYCPNCRALLGTYKRL [LITAF] | -0.592 | -0.943 |  |  |
| MVRFKHRYLLCELVSDDPRCRLSLDDRVLSSLVRDTIARVHGTFGAAACSIGFAVRYLNAYTGIVLLRCRKEFYQLVWSALPFITYLENKGHRYPCFFNTLHVGGTIRTCQKFLIQYNRRQLLILLQNCTDEGEREAIQKSVTRSCLLEEEEESGEEAAEAME [POP5] | -0.00794 | -2.6 |  |  |
| TTC3 | 0.321 | -0.39 |  |  |
